Article PMC4460036

Biological target: Fibrillar-type I Horm collagen from equine tendon (equine)
Experiment: not stated; apparent constants (KDapp) of recombinant soluble GPVI for collagen; method and conditions not told

Row | Kd | Substance
1 | 5 nM | GPVI-Fc (extracellular domain of human GPVI fused to the Fc domain of human Igs) (from UniProt Q9HCN6 21-267) (Fc fusion)
2 | 270 nM | GPVI-His (extracellular domain of human GPVI fused to a poly-His tag) (from UniProt Q9HCN6 21-267) (domain or fragment)
